This experiment concerns the target H5N1 A/Vietnam/1203/2004 HA1 (1-330) protein from 293 Flp-In cells (influenza A virus A/Vietnam/1203/2004 (H5N1)). In words: SEC.

Consider “H5N1 A/Vietnam/1203/2004 HA1 (1-330) protein from 293 Flp-In cells (domain or fragment)”, for which the stoichiometry N was 3.

The values are drawn from publication PMC3046144.
